In one test the target is αvβ5 integrin (Homo sapiens, UniProt P06756+P18084, DEL720-799). In words: SPR integrin specificity, immobilized αvβ5. In kind it is binding. The following applies: variants at 1 μM. Here is the method: (§1) Determination of binding of the soluble purified proteins (M-CSFM and M-CSFRGD variants) to c-FMS and αvβ3 integrin was performed on a ProteOn XPR36 (Bio-Rad, USA). […] Unbound esters were deactivated with 1 M ethanolamine HCl at pH 8.5, and the temperature was set at 25° C. Then, the chip was rotated, and the human c-FMS soluble proteins (Sino Biological, China) were allowed to flow over the chip at 6 different concentrations (0, 12.5, 25, 50, 100 and 200 nM) at a flow rate of 50 μl/min for 490 s, followed by dissociation for 600 s in PBS+0.005% Tween (PBST). For determining αvβ3 integrin binding, the chip was regenerated using 50 mM NaOH at a flow rate of 100 μl/min and analyzed again for c-FMS binding to make sure that the chip had been regenerated. After making sure the chip is regenerated, and different concentrations of […] proteins (0, 12.5, 25, 50, 100 and 200 nM) were allowed to flow over the chip. The interactions obtained were normalized to the initial protein binding RUs to the chip surface. Then, for each concentration, the KD was obtained from the equilibrium binding phase of the sensorgram. To determine the αvβ3 integrin specificity for each M-CSFRGD variant, a new chip was loaded with different RGD binding integrins, as follows: 8.5 μg of α3β1, 8.5 μg of α4β7, 6 μg of α5β1, 8.5 μg of αvβ5, and 8.5 μg of αvβ3 integrin and 3 μg of BSA as a negative control. […]

The target in test [1] is αvβ3 integrin (Homo sapiens, UniProt P05106+P06756). In words: SPR binding of purified proteins to αvβ3 integrin. To be noted: proteins immobilized; integrin 0-200 nM; equilibrium. Here is the method: as §1
In general terms: Surface plasmon resonance follows binding to a sensor surface in real time, without labels.

The target in test [2] is T1, αvβ3 integrin (Homo sapiens, UniProt P05106+P06756, DEL719-788).
T1 construct: purchased R&D Systems
The experiment in a line: YSD binding of M-CSFM to αvβ3 integrin. To be noted: even at high concentrations of 200 nM. As to the method:
For expressing the M-CSFM gene and the two M-CSFRGD libraries on the yeast surface, the SDCAA medium was replaced by SGCAA medium (2% galactose, 0.67% yeast nitrogen base, 0.5% bacto casamino acids, 1.47% sodium citrate, 0.429% citric acid monohydrate) and the yeasts were incubated overnight at 30° C. until the culture reached OD600=10.0 (10^8 cells per ml). A number of cells equal to ten times the library size was added to 1 ml of PBS containing 1% bovine serum albumin (PBSA); the suspension was centrifuged, and the supernatant was removed. For binding analysis of M-CSFM and the M-CSFRGD libraries to c-FMS, yeast cells were incubated with mouse anti c-myc antibody, 9E10 (Abcam, Cambridge, MA, USA) in a 1:50 ratio and different concentrations of soluble Fc conjugated human c-FMS (R&D systems, USA) for 1 h at room temperature. After an additional washing step, cells were labeled with secondary PE anti mouse (Sigma-Aldrich, St. Louis, MO, USA) and goat anti human Fc FITC antibodies (Sigma-Aldrich) for 30 min at 4° C. in the dark. For binding analysis of M-CSFRGD libraries to integrin, the experiment was performed with integrin binding buffer (IBB; 20 mM Tris, pH7.5, 2 mM CaCl2, 100 mM NaCl, 1 mM MgCl2, and 1 mM MnCl2)+1% BSA. The yeast cells were incubated with chicken anti c-myc and different concentrations of soluble human αvβ3 integrin (R&D Systems, Minneapolis, MN, USA) for 1 h. […]

Another test concerns the target c-kit receptor (Homo sapiens, UniProt P10721). The experiment in a line: YSD binding specificity test against c-kit receptor. The following applies: even at high concentrations of 200 nM; data not shown. Here is the method:
Next, a binding specificity of the M-CSFM to c-FMS was evaluated. For this purpose, the ability of M-CSFM to bind a c-kit receptor, which is a c-FMS structural homolog, was utilized.

T1 sequence (P06756 31-992 limits assumed, stated change not applied): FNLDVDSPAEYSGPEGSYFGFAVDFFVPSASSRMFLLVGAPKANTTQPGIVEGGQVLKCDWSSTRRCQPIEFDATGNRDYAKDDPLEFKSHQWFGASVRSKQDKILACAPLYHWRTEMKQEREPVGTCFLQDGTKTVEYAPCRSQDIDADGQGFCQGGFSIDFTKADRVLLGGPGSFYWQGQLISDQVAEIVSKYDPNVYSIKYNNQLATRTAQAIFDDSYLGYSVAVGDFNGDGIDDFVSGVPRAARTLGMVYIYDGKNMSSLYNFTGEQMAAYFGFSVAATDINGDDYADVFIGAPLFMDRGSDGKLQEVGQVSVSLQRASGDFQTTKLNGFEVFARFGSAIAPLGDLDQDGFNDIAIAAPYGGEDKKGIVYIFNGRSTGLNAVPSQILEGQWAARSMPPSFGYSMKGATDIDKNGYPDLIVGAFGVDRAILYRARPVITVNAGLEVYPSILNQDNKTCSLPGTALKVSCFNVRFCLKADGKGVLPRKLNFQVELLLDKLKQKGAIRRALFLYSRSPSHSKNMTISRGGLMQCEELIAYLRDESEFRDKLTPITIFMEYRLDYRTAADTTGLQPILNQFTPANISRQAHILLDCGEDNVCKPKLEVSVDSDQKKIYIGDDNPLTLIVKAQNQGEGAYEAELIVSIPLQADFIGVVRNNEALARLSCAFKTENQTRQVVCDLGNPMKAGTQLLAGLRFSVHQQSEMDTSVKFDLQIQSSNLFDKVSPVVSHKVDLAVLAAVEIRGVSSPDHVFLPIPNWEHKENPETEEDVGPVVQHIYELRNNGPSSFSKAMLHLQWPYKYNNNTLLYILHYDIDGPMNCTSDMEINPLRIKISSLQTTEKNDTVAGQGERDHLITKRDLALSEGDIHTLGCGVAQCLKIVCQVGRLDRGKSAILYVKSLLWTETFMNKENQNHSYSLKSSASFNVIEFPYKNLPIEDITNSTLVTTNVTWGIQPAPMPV
T1 sequence (P05106 27-718 limits assumed, stated change not applied): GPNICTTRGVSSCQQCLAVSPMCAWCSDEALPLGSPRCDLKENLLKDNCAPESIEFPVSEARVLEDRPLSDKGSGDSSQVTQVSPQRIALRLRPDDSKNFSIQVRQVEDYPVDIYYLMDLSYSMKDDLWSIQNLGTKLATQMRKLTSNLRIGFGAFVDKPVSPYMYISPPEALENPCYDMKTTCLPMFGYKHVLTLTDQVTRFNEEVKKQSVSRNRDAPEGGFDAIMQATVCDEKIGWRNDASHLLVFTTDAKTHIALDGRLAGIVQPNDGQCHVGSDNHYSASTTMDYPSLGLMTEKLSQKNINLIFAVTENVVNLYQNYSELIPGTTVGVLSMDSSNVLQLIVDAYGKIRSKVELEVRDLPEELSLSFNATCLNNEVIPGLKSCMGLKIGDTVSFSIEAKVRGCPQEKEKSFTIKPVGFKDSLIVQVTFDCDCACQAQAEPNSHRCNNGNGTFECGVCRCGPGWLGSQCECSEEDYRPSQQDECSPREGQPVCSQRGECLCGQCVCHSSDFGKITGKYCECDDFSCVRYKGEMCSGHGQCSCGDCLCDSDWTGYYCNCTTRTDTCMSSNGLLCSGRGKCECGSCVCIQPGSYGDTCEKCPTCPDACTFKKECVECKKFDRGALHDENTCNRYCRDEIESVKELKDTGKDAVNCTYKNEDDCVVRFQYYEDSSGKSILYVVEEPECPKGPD
αvβ5 integrin, sequence (P06756 31-992 limits assumed, stated change not applied): as the sequence (P06756 31-992 limits assumed, stated change not applied) above
αvβ5 integrin, sequence (P18084 24-719 limits assumed, stated change not applied): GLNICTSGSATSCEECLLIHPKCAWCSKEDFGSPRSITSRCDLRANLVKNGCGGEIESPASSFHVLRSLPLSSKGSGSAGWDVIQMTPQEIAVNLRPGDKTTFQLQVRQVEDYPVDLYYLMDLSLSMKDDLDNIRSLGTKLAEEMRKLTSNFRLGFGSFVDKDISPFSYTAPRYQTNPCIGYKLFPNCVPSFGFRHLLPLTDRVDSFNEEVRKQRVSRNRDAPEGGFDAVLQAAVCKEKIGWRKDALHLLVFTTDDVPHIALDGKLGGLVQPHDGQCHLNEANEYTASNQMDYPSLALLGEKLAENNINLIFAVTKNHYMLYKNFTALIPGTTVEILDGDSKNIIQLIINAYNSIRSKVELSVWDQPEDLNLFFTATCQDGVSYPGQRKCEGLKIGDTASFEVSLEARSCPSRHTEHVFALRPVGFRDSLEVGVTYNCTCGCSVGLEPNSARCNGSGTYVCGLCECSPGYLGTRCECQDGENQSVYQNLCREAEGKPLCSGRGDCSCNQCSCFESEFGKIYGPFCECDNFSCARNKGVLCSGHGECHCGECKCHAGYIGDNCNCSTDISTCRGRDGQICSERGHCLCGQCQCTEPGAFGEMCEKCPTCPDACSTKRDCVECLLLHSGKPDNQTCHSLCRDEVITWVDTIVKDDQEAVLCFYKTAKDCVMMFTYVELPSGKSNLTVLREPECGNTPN
αvβ3 integrin (Homo sapiens, UniProt P05106+P06756), sequence (P06756 31-992 limits assumed): as the sequence (P06756 31-992 limits assumed, stated change not applied) above
αvβ3 integrin (Homo sapiens, UniProt P05106+P06756), sequence (P05106 27-718 limits assumed): as the sequence (P05106 27-718 limits assumed, stated change not applied) above
c-kit receptor, sequence (P10721 26-976): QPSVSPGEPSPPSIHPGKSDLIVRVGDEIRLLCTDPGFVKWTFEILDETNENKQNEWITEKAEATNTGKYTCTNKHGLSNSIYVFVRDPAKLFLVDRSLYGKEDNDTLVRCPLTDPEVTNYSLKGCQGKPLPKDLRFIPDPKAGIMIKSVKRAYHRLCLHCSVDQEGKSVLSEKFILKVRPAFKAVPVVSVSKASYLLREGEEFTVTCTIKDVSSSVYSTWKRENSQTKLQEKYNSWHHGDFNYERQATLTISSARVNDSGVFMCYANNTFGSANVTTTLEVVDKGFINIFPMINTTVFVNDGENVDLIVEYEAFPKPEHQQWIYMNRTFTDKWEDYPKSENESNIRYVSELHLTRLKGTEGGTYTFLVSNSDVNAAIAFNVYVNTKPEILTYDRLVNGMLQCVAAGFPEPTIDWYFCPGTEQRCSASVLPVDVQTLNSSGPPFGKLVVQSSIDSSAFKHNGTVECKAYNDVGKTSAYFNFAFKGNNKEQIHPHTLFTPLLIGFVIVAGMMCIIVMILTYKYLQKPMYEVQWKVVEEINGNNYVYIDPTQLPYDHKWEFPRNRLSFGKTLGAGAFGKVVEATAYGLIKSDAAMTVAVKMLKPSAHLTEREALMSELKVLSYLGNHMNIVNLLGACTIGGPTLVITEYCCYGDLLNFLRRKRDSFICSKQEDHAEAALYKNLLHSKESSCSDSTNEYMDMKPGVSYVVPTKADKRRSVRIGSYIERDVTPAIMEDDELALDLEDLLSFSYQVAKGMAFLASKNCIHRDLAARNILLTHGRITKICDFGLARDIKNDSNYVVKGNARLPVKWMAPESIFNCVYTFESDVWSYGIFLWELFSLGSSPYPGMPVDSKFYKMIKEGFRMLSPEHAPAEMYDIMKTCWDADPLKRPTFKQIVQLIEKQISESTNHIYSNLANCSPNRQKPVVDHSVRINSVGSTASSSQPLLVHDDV

B1: 5.6: bispecific M-CSFRGD variant from sort five; M-CSFM loop replaced by XXXRGDXXX motif; binds c-FMS and αvβ3 integrin (protein)
chain: EEVSEYCSHMIGSGHLQSLQRLIDTYPRGDMCSITFEFVDQEQLKDPVCYLKKAFLLVQDIMEDTMRFRDNTPNAIAIVQLQELSLRLKSCFTKDYEEHDKACVRTFYETPLQLLEKVKNVFNETKNLLDKDWNIFSKNCNNSFAECSSQGHERQSEGS
modifications: left off: small tags and cut ends
Turning to B1, in the test with αvβ5 integrin, the “rank order of αvβ5 integrin binding” value is 4.24 is the best αvβ5 integrin followed by 4.22 and 5.6.

B2: M-CSFM: 158 amino acid M-CSF with cysteine at position 31 replaced by serine (SEQ ID NO: 2) (protein)
chain: EEVSEYCSHMIGSGHLQSLQRLIDSQMETSSQITFEFVDQEQLKDPVCYLKKAFLLVQDIMEDTMRFRDNTPNAIAIVQLQELSLRLKSCFTKDYEEHDKACVRTFYETPLQLLEKVKNVFNETKNLLDKDWNIFSKNCNNSFAECSSQGHERQSEGS
Consider B2, for which the “KD to αvβ3 integrin” value in the test with αvβ3 integrin [1] is recorded as “did not bind”. Moreover, the “binding to αvβ3 integrin” value with αvβ3 integrin [2] is listed as “did not bind”. Also, the “binding to c-kit receptor” value with c-kit receptor is given as “did not bind”.

(Values after US11976099B2, “Compositions and methods for treatment of bone associated diseases” (THE NATIONAL INSTITUTE FOR BIOTECHNOLOGY IN THE NEGEV LTD., priority 2016, dated 2024).)
